Laboratory results published in the Immune Epitope Database (IEDB).

Experiments:
[1] = biological target: HLA-A*02:02; assay: IEDB peptide-MHC binding, purified MHC/competitive/radioactivity; filed as Kd, often an IC50 or EC50 that approximates it; ≥ and ≤ were set here for values at or beyond the usual limits of such assays
[2] = biological target: HLA-A*02:03; assay: as above
[3] = biological target: HLA-A*02:06; assay: as above
[4] = biological target: HLA-A*02:01; assay: IEDB peptide-MHC binding, purified MHC/competitive/fluorescence; ≥ and ≤ were set here for values at or beyond the usual limits of such assays
[5] = biological target: HLA-A*24:02; assay: IEDB peptide-MHC binding, purified MHC/competitive/radioactivity; filed as Kd, often an IC50 or EC50 that approximates it; ≥ and ≤ were set here for values at or beyond the usual limits of such assays
[6] = biological target: HLA-A*02:01; assay: IEDB peptide-MHC binding, purified MHC/direct/fluorescence; filed as Kd, often an IC50 or EC50 that approximates it; ≥ and ≤ were set here for values at or beyond the usual limits of such assays
[7] = biological target: HLA-A*69:01; assay: as above
[8] = biological target: HLA-B*27:05; assay: as above; settings: source organism: SARS-CoV1
[9] = biological target: HLA-A*03:01; assay: as above
[10] = biological target: HLA-A*01:01; assay: as above; settings: source organism: Influenza A virus (A/chicken/Nanchang/7-010/2000(H3N6))
[11] = biological target: HLA-A*11:01; assay: as above
[12] = biological target: HLA-B*40:01; assay: as above; settings: source organism: Homo sapiens
[13] = biological target: HLA-B*15:01; assay: as above; settings: source organism: SARS-CoV1
[14] = source organism: Vaccinia virus WR
[15] = source organism: Zaire ebolavirus
[16] = source organism: Mycobacterium tuberculosis
[17] = source organism: Yersinia pestis Antiqua
[18] = source organism: Encephalitozoon cuniculi
[19] = source organism: Francisella tularensis subsp. holarctica LVS
[20] = source organism: SARS coronavirus Tor2
[21] = source organism: Mammarenavirus caliense
[22] = source organism: Bacillus cytotoxicus

Row | Sequence | Kd [1, 14] [nM] | Kd [2, 14] [nM] | Kd [3, 14] [nM] | further results
1 | NINFNNSSII | 6640 | 13300 | ≥ 30100 | –
2 | PTVAPPAPV | – | – | – | IC50 [4, 15]: ≥ 171000 nM
3 | IAVANCVRNL | 57.1 | 467 | 9120 | –
4 | NASKFVYVSV | 4550 | 8.57 | 823 | –
5 | TWAYHGSYET | – | – | – | Kd ([5]; source organism: Dengue virus 2 Jamaica/1409/1983): 2160 nM
6 | QWMTTEDMLT | – | – | – | Kd ([5]; source organism: Dengue virus 3 Martinique/1243/1999): 6100 nM
7 | YLPRFLFGV | – | – | – | Kd [6, 16]: 1.8 nM
8 | DSMFLMTAT | – | – | – | IC50 ([4]; source organism: Variola virus): 4400 nM
9 | IHDFIDNPL | – | – | – | IC50 ([4]; source organism: Sudan ebolavirus): ≥ 103000 nM
10 | KLDDTGKKEL | 101 | 139 | 5530 | –
11 | SQGRGWFLL | – | – | – | Kd [6, 17]: 284 nM; Kd [7, 17]: ≥ 20000 nM
12 | WVMDTLNGI | 9.78 | 1.01 | 0.731 | –
13 | LLVQYGAKI | 206 | 358 | 1140 | –
14 | VLEKKVCAIT | 590 | 1240 | 1680 | –
15 | PAHLINKLL | 6690 | 6310 | ≥ 42300 | –
16 | IAGVAGLIT | – | – | – | IC50 [4, 15]: ≥ 205000 nM
17 | YLVPGEGEQ | – | – | – | Kd [6, 18]: 7000 nM; Kd [7, 18]: ≥ 20000 nM
18 | SRYWEPEFY | – | – | – | Kd [8]: 1190 nM
19 | YVILTILTI | – | – | – | Kd ([5]; source organism: Dengue virus 4 Philippines/H241/1956): 6010 nM
20 | RIVVALSSLV | 47.6 | 7.21 | 9.62 | –
21 | TTENAAYQV | ≥ 77800 | ≥ 51300 | 442 | –
22 | IASSMKGENV | 751 | 3240 | 311 | –
23 | AISYCRAFI | 17.2 | 149 | 146 | –
24 | RLFARTGLE | – | – | – | Kd ([9]; source organism: Burkholderia ambifaria AMMD): 748 nM
25 | AMIHKTYIDV | 335 | 26.7 | 206 | –
26 | VVEPPRQLV | – | – | – | Kd [6, 16]: ≥ 5000 nM; Kd [7, 16]: 20000 nM

Row | Sequence | Kd [1, 14] [nM] | Kd [2, 14] [nM] | Kd [3, 14] [nM] | further results
27 | TVDFTDCRT | 9680 | ≥ 27000 | 339 | –
28 | DVGCLLTDT | ≥ 77800 | ≥ 65400 | ≥ 77100 | –
29 | GSTLAGVNV | – | – | – | IC50 [4, 15]: ≥ 95000 nM
30 | NYRPGYFTQ | – | – | – | Kd ([5]; source organism: Dengue virus 1 Brazil/97-11/1997): ≥ 44400 nM
31 | SSEDLNGMI | – | – | – | Kd [10]: ≥ 20000 nM
32 | ITVGMLIYSM | 47.4 | 6110 | 97.1 | –
33 | AVYSICKFY | – | – | – | Kd [9, 19]: 297 nM; Kd [11, 19]: 708 nM
34 | NLILNFLDWI | 1690 | 283 | 443 | –
35 | HLDGEVLSL | – | – | – | Kd [1, 20]: 65.9 nM; Kd [2, 20]: 131 nM; Kd [3, 20]: 160 nM
36 | TTFGRIGVK | – | – | – | Kd [11, 16]: 2 nM
37 | CTMERTNDLT | 4050 | 16100 | 1010 | –
38 | YLMCLSPLMA | – | – | – | Kd [1, 20]: 0.237 nM; Kd [2, 20]: 0.127 nM; Kd [3, 20]: 1.29 nM
39 | ITPTIEDDKI | 18700 | 4200 | 1500 | –
40 | EHAGVISVL | – | – | – | Kd ([7]; source organism: Homo sapiens): 4640 nM; Kd [12]: 364 nM
41 | YNLSLSAAV | – | – | – | Kd [1, 21]: 867 nM; Kd [2, 21]: 1140 nM; Kd [3, 21]: 1660 nM
42 | IKHVGLITC | – | – | – | IC50 [4, 14]: ≥ 622000 nM
43 | LMYKGLPWNV | – | – | – | Kd [1, 20]: 1.75 nM; Kd [2, 20]: 5.34 nM; Kd [3, 20]: 37.1 nM
44 | TLLNETAKV | 246 | 83.1 | 11.1 | –
45 | VISVIFYFI | 1.4 | 729 | 497 | –
46 | RFGTSLLFL | – | – | – | Kd ([5]; source organism: Dengue virus 4 Dominica/814669/1981): 673 nM
47 | NMDWRSLTQV | 100 | 17.4 | 1.69 | –
48 | DTGKKELAL | 116 | 156 | 14200 | –
49 | LSPETLVGV | – | – | – | IC50 ([4]; source organism: Vaccinia virus): 904 nM
50 | ALSGFYYVQ | – | – | – | Kd [6, 22]: 1400 nM; Kd [7, 22]: 2360 nM
51 | ILGLPTQTV | – | – | – | Kd ([6]; source organism: SARS-CoV1): 402 nM; Kd [13]: 1600 nM
52 | ILSNKLLYAA | 8.09 | 1110 | 150 | –
